Measured values as given in US20150191542A1 (INNATE PHARMA S A, published 2015).

What was measured:
[1] = biological target: T1, ULBP1-Fc protein (UniProt Q9BZM6 26-216, limits assumed); assay: SPR Biacore T100, biotinylated antibody captured on CAP chip, Fc protein injected
T1 construct: also called ULPB1; not shown: Fc part
T1 sequence (looked up): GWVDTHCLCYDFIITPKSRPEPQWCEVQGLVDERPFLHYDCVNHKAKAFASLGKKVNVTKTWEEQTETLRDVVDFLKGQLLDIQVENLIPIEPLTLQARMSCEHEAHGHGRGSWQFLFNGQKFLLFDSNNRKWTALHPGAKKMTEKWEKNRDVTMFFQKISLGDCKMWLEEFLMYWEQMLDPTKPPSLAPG
Procedure: (§1) The binding of 9C10, 20C6 and 16A8 to either recombinant human MICA extracellular domain recombinant protein monomers or dimers (MICA*019 allele-Fc protein or MICA*001-His protein) as well as other NKG2D ligands MICB and ULBP1-2 was analyzed by Surface Plasmon Resonance (SPR) using a Biacore T100 apparatus to obtain monovalent and bivalent affinity, respectively. Biotinylated anti-MICA antibodies were injected at a constant rate of 10 μl/min over the Sensor Chip CAP flow-cells comprising Biotin CAPture Reagent. MICA-Fc or MICA-His protein, MICB-Fc, ULBP1-Fc or ULBP2-Fc protein is then injected successively (range of concentrations between 0.01-100 nM), with regeneration between injections, and in increasing order over two flowcells simultaneously. Curves are fitted using Biacore T100 Evaluation software.
(§2) (a) General Biacore T100 methods. SPR measurements were performed on a Biacore T100 apparatus (Biacore GE Healthcare) at 25° C. In all Biacore experiments HBS-EP+ buffer (Biacore GE Healthcare) or 10 mM sodium acetate pH 7.4, 150 mM NaCl, 0.05% P20 served as running buffer and sensorgrams were analyzed with Biaevaluation 4.1 and Biacore T100 Evaluation software. Recombinant human and mouse TLR3 were purchased from R&D Systems.

[2] = biological target: T2, ULBP2-Fc protein (UniProt Q9BZM5 26-217, limits assumed); assay: as above
T2 construct: also called ULPB2; not shown: Fc part
T2 sequence (looked up): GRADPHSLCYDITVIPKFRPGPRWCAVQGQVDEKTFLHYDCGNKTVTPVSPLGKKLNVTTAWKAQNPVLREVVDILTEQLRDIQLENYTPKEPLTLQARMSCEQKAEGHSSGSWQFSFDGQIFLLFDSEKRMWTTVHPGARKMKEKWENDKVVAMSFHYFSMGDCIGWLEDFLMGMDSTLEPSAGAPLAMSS
Procedure: as §1, §2

[3] = biological target: T3, MICA*001 extracellular domain α3 recombinant protein (human, UniProt Q29983 205-297); assay: ELISA, 3 µg/ml recombinant protein coated
T3 construct: also called MICA extracellular domain α3 recombinant protein; α3 domain of MICA
T3 sequence: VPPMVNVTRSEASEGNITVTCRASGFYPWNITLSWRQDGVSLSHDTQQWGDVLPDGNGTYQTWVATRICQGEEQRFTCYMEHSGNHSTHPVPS
Procedure: 3 μg/ml of the indicated MICA recombinant proteins were coated overnight in 96-well plates in PBS 1× at 4° C. All subsequent steps were performed at room temperature. After washes with PBS 1×/Tween 0.05%, plates were saturated for an additional 2 hours in PBS 1×/BSA 1%. Two additional washes were performed prior adding the tested anti-MICA mAb in PBS 1×/BSA 1% for 2 hours. Antibodies were washed and a horseradish peroxidase conjugated goat polyclonal anti-mouse IgG (GAM-HRP) in PBS 1×/BSA 1% was added for 1 hour. Final washing steps were performed and TMB substrate was added to reveal the ELISA (5 to 20 min in the dark) and 1M HCl was added to stop the enzymatic reaction. O.D. was measured at 450 nm.
9C10 binds to MICA extracellular domain recombinant-protein but not MICA extracellular domain α3 recombinant protein. Antibody 16A8, however, bound to both MICA extracellular domain recombinant protein […] MICA extracellular domain α3 recombinant protein. Therefore, it can be concluded from this ELISA experiment that the binding site on MICA of 9C10 antibodies includes the α1 and/or α2 domains while antibody 16A8 binds to MICA within the α3 domain. […] BAMO1 is a commercially available anti-MICA specific for α1α2 domain and BAMO3 is a commercially available anti-MICA specific for α3 domain.

[4] = biological target: T4, MICA*008 expressed on C1R transfectant cells (human, UniProt Q29983 24-297, Glycosylated on cells; the letters do not carry this.); assay: flow cytometry on C1R-MICA*008 cells, 3-parameter logistic fit
T4 construct: also called C1R-MICA*008; C1R-MICA*08
T4 chain: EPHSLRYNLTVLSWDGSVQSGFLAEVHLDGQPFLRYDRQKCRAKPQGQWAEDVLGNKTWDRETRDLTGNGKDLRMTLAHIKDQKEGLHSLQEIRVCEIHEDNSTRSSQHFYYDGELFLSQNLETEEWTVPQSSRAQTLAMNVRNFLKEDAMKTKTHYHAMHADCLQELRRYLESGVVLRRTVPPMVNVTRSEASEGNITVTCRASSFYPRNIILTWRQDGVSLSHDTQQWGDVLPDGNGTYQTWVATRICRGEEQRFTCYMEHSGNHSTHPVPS
Procedure: The binding of antibodies obtained from the first and second immunization series (including 9C10, 20C6 and 16A8) were tested for binding to MICA-expressing CR1 transfectant cells C1R-MICA*001, C1R-MICA*004, C1R-MICA*007 and C1R-MICA*008 (Pr. A. Steinle, Eberhard-Karls University Tuebingen, Germany) described in Salih et al. (2003) Blood 102(4): […]. Binding was analyzed by flow cytometry.
Cells were harvested and stained in PBS 1×/BSA 0,2%/EDTA 2 mM buffer during 30 minutes at 4° C. using a dose-range of the anti-MICA mAbs. After two washes in staining buffer, cells were stained for 30 min at 4° C. with goat anti-mouse (H+L)-PE polyclonal antibodies (1/200). After two washes, stainings were acquired on a BD FACS Canto II and analyzed using the FlowJo software.
Antibodies 9C10, 20C6 and 16A8 bound to each of the C1R-MICA*001, C1R-MICA*004, C1R-MICA*007 and C1R-MICA*008 cells (see FIGS. 3A, 3B and 3C for antibodies 9C10, 20C6 and 16A8 respectively). […] EC50 values are shown in Table C in μg/ml (calculated using a 3-parameter logistic fit).

B1: antibody 9C10 (antibody, V domains shown)
VH: QVQLQQPGAELVRPGTSVNLSCKASGYSFTRYWMNWVKQRPGQGLEWIGMIHPSDSETRLNQKFKDKATLTVDKSSSTAYMQLSSPTSEDSAVYYCGYGNFFYVMDYWGQGTSVTVSS
VL: DILLTQSPAILSVSPGERVSFSCRASQSIGTSIHWYQQRTNGSPRLLIKFASESISGIPSRFSGSGSGTDFTLNINSVESEDIADYYCQQSNFWPFTFGSGTKLEVK
modifications: Biotinylated when captured in the SPR assays (9C10-Biot); the sites are not given.
notes: Murine hybridoma antibody of IgG2b isotype as tested; also called 9C10-Biot
B1: no binding (tested: 0.01-100 nM) [1]; no binding (tested: 0.01-100 nM) [2]; no binding [3]. The EC50 [4] was 0.15 µg/mL.

B2: antibody 16A8 (antibody, V domains shown)
VH: EVQLVESGGGLVKPGGSLKLSCAASGFTFSRYAMSWVRQTPEKRLEWVATIFSGGSYTYYPDSVKGRFTISRDNANNTLYLQMSSLKAEDTAMYFCARPNWERTFDYWGQGTTLTVSS
VL: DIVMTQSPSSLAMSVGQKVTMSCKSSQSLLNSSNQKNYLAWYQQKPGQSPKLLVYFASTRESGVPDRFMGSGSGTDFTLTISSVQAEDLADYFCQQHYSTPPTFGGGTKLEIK
notes: Murine hybridoma antibody of IgG2a isotype as tested; also called 16A8-Biot
An EC50 [4] of 0.33 µg/mL was found for B2 in this work.
